Assay results: publication PMC5125937 (Molecules and Cells, 2016)
Residue numbers refer to the chain shown, from its start. Names may count otherwise.

T1: EcZapD H140R (residues 1-247) (E. coli, UniProt P36680 1-247, H140R)
T1 sequence: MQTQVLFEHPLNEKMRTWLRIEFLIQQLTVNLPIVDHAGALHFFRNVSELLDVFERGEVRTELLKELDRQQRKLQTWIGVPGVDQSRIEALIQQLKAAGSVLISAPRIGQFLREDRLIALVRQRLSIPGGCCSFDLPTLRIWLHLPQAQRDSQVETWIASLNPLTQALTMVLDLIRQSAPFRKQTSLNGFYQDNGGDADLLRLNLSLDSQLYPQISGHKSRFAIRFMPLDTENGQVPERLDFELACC

T2: EcZapD E22R (residues 1-247) (E. coli, UniProt P36680 1-247, E22R)
T2 sequence: T1 sequence with E22R, R140H

B1: EcZapD WT (residues 1-247) (natural protein)
chain: T1 sequence with R140H
B2: GST-FtsZ_(367-379) (peptide)
chain: KEPDYLDIPAFLR
B3: GST-FtsZ_(367-383) (peptide)
chain: KEPDYLDIPAFLRKQAD
B4: GST-FtsZ_(367-383) K380D (peptide)
chain: KEPDYLDIPAFLRDQAD

Legend:
SEC-MALS = biological target: the molecule itself; test: SEC-MALS
[1] = biological target: B1; test: BLI
[2] = biological target: T1, EcZapD H140R (residues 1-247); test: BLI
[3] = biological target: T2, EcZapD E22R (residues 1-247); test: BLI

## B1
SEC-MALS
  stoichiometry N: 2

## B2
[1]
  Kd: > 2000 µM

## B3
[2]
  Kd: 16 ± 1 µM
[3]
  Kd: 68 ± 2.2 µM
[1]
  Kd: 4.4 ± 0.5 µM

## B4
[1]
  Kd: 4.7 ± 0.5 µM
